US20220389118A1 (Chugai, published 2022)

Assays:
Experiment in all cases: SPR (Biacore)
[1] = target: T1, human FcγRIIa type R extracellular domain with C-terminal His tag (human, UniProt P12318 34-217)
T1 construct: extracellular domain; also called FcγRIIaR; FcγRIIa(R)
T1 sequence (looked up): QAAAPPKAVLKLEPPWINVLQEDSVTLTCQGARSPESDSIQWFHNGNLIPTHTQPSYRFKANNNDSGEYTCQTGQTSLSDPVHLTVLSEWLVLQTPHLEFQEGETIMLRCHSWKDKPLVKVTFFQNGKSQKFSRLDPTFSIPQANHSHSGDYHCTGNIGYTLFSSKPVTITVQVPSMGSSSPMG

[2] = target: T2, human FcγRIIb extracellular domain with C-terminal His tag (human, UniProt P31994 43-217)
T2 construct: extracellular domain
T2 sequence (looked up): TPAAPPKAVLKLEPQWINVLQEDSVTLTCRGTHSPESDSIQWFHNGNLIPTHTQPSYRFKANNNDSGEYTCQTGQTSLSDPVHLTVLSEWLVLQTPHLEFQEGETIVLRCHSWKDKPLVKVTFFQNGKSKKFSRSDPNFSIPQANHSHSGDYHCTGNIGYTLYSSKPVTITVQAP

[3] = target: T3, human FcγRIa extracellular domain with C-terminal His tag (human, UniProt P12314 16-292)
T3 construct: extracellular domain
T3 sequence (P12314 16-292): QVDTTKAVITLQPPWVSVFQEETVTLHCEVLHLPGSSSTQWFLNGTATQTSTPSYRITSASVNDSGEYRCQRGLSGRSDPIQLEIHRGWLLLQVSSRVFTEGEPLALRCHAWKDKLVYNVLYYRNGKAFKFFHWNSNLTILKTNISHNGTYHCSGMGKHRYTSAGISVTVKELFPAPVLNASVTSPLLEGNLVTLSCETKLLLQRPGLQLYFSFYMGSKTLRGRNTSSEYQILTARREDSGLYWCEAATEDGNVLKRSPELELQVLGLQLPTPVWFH

B1: IL6R-BP445/IL6R-L (antibody, human IgG1, kappa)
heavy: QVQLQESGPGLVKPSETLSLTCAVSGHSISHDHAWSWVRQPPGEGLEWIGFISYSGITNYNPSLQGRVTISRDNSKNTLYLQMNSLRAEDTAVYYCARSLARTTAMDYWGEGTLVTVSSASTKGPSVFPLAPSSKSTSGGTAALGCLVKDYFPEPVTVSWNSGALTSGVHTFPAVLQSSGLYSLSSVVTVPSSSLGTQTYICNVNHKPSNTKVDKKVEPKSCDKTHTCPPCPAPDLLGDDSVFLFPPKPKDTLMISRTPEVTCVVIDVAEEDGEVKFNWYVDGVEVHNAKTKPREEQYNSTYRVVSVLTVLHQDWLNGKEYKCKVSNKALPRPIEKTISKAKGQPREPQVYTLPPSRDELTKNQVSLTCLVKGFYPSDIAVEWESNGQPENNYKTTPPVLDSDGSFFLYSKLTVDKSRWQQGNVFSCSVMHEALHNHYTQESLSLSP
light: not shown
notes: copies: 2 + 2
Kd [1]: 80 nM | Kd [2]: 2.6 nM | Kd [3]: 2 nM

B2: IL6R-BP490/IL6R-L (antibody, human IgG1, kappa)
heavy: QVQLQESGPGLVKPSETLSLTCAVSGHSISHDHAWSWVRQPPGEGLEWIGFISYSGITNYNPSLQGRVTISRDNSKNTLYLQMNSLRAEDTAVYYCARSLARTTAMDYWGEGTLVTVSSASTKGPSVFPLAPSSKSTSGGTAALGCLVKDYFPEPVTVSWNSGALTSGVHTFPAVLQSSGLYSLSSVVTVPSSSLGTQTYICNVNHKPSNTKVDKKVEPKSCDKTHTCPPCPAPELLGDDSVFLFPPKPKDTLMISRTPEVTCVVIDVAEEDGEVKFNWYVDGVEVHNAKTKPREEQYNSTYRVVSVLTVLHQDWLNGKEYKCKVSNKALPRPIEKTISKAKGQPREPQVYTLPPSRDELTKNQVSLTCLVKGFYPSDIAVEWESNGQPENNYKTTPPVLDSDGSFFLYSKLTVDKSRWQQGNVFSCSVMHEALHNHYTQESLSLSP
light: not shown
notes: copies: 2 + 2
Kd [1]: 110 nM | Kd [2]: 2.4 nM | Kd [3]: 4.5 nM

B3: IL6R-BP426/IL6R-L (antibody, human IgG1, kappa)
heavy: QVQLQESGPGLVKPSETLSLTCAVSGHSISHDHAWSWVRQPPGEGLEWIGFISYSGITNYNPSLQGRVTISRDNSKNTLYLQMNSLRAEDTAVYYCARSLARTTAMDYWGEGTLVTVSSASTKGPSVFPLAPSSKSTSGGTAALGCLVKDYFPEPVTVSWNSGALTSGVHTFPAVLQSSGLYSLSSVVTVPSSSLGTQTYICNVNHKPSNTKVDKKVEPKSCDKTHTCPPCPAPDLLGDDSVFLFPPKPKDTLMISRTPEVTCVVVDVAEDDGEVKFNWYVDGVEVHNAKTKPREEQYNSTYRVVSVLTVLHQDWLNGKEYKCKVSNKALPRPIEKTISKAKGQPREPQVYTLPPSRDELTKNQVSLTCLVKGFYPSDIAVEWESNGQPENNYKTTPPVLDSDGSFFLYSKLTVDKSRWQQGNVFSCSVMHEALHNHYTQESLSLSP
light: not shown
notes: copies: 2 + 2
Kd [3]: 1 nM

B4: IL6R-BP264/IL6R-L (antibody, human IgG1, kappa)
heavy: QVQLQESGPGLVKPSETLSLTCAVSGHSISHDHAWSWVRQPPGEGLEWIGFISYSGITNYNPSLQGRVTISRDNSKNTLYLQMNSLRAEDTAVYYCARSLARTTAMDYWGEGTLVTVSSASTKGPSVFPLAPSSKSTSGGTAALGCLVKDYFPEPVTVSWNSGALTSGVHTFPAVLQSSGLYSLSSVVTVPSSSLGTQTYICNVNHKPSNTKVDKKVEPKSCDKTHTCPPCPAPDLLGDDSVFLFPPKPKDTLMISRTPEVTCVVVDVSEEDGEVKFNWYVDGVEVHNAKTKPREEQDNSTYRVVSVLTVLHQDWLNGKEYKCKVSNKALPRPIEKTISKAKGQPREPQVYTLPPSRDELTKNQVSLTCLVKGFYPSDIAVEWESNGQPENNYKTTPPVLDSDGSFFLYSKLTVDKSRWQQGNVFSCSVMHEALHNHYTQESLSLSP
light: not shown
notes: copies: 2 + 2
Kd [1]: 350 nM | Kd [3]: 7.4 nM

B5: IL6R-BP501/IL6R-L (antibody, human IgG1, kappa)
heavy: QVQLQESGPGLVKPSETLSLTCAVSGHSISHDHAWSWVRQPPGEGLEWIGFISYSGITNYNPSLQGRVTISRDNSKNTLYLQMNSLRAEDTAVYYCARSLARTTAMDYWGEGTLVTVSSASTKGPSVFPLAPSSKSTSGGTAALGCLVKDYFPEPVTVSWNSGALTSGVHTFPAVLQSSGLYSLSSVVTVPSSSLGTQTYICNVNHKPSNTKVDKKVEPKSCDKTHTCPPCPAPELLGDDSVFLFPPKPKDTLMISRTPEVTCVVIDVAEEDGEVKFNWYVDGVEVHNAKTKPREEQYNSTYRVVSVLTVLHQDWLNGKEYKCKVSNKALPAPIEKTISKAKGQPREPQVYTLPPSRDELTKNQVSLTCLVKGFYPSDIAVEWESNGQPENNYKTTPPVLDSDGSFFLYSKLTVDKSRWQQGNVFSCSVMHEALHNHYTQESLSLSP
light: not shown
notes: copies: 2 + 2
Kd [2]: 25 nM | Kd [3]: 2.1 nM

B6: IL6R-BP435/IL6R-L (antibody, human IgG1, kappa)
heavy: QVQLQESGPGLVKPSETLSLTCAVSGHSISHDHAWSWVRQPPGEGLEWIGFISYSGITNYNPSLQGRVTISRDNSKNTLYLQMNSLRAEDTAVYYCARSLARTTAMDYWGEGTLVTVSSASTKGPSVFPLAPSSKSTSGGTAALGCLVKDYFPEPVTVSWNSGALTSGVHTFPAVLQSSGLYSLSSVVTVPSSSLGTQTYICNVNHKPSNTKVDKKVEPKSCDKTHTCPPCPAPDLLGDDSVFLFPPKPKDTLMISRTPEVTCVVVDVSDEDGEVKFNWYVDGVEVHNAKTKPREEQDNSTYRVVSVLTVLHQDWLNGKEYKCKVSNAALPRPTEKTISKAKGQPREPQVYTLPPSRDELTKNQVSLTCLVKGFYPSDIAVEWESNGQPENNYKTTPPVLDSDGSFFLYSKLTVDKSRWQQGNVFSCSVMHEALHNHYTQESLSLSP
light: not shown
notes: copies: 2 + 2
Kd [3]: 1 nM

B7: IL6R-BP495/IL6R-L (antibody, human IgG1, kappa)
heavy: QVQLQESGPGLVKPSETLSLTCAVSGHSISHDHAWSWVRQPPGEGLEWIGFISYSGITNYNPSLQGRVTISRDNSKNTLYLQMNSLRAEDTAVYYCARSLARTTAMDYWGEGTLVTVSSASTKGPSVFPLAPSSKSTSGGTAALGCLVKDYFPEPVTVSWNSGALTSGVHTFPAVLQSSGLYSLSSVVTVPSSSLGTQTYICNVNHKPSNTKVDKKVEPKSCDKTHTCPPCPAPELLGDDSVFLFPPKPKDTLMISRTPEVTCVVVDVGEEDGEVKFNWYVDGVEVHNAKTKPREEQDNSTYRVVSVLTVLHQDWLNGKEYKCKVSNKALPRPIEKTISKAKGQPREPQVYTLPPSRDELTKNQVSLTCLVKGFYPSDIAVEWESNGQPENNYKTTPPVLDSDGSFFLYSKLTVDKSRWQQGNVFSCSVMHEALHNHYTQESLSLSP
light: not shown
notes: copies: 2 + 2
Kd [2]: 9.7 nM | Kd [3]: 8.3 nM

B8: IL6R-BP268/IL6R-L (antibody, human IgG1, kappa)
heavy: QVQLQESGPGLVKPSETLSLTCAVSGHSISHDHAWSWVRQPPGEGLEWIGFISYSGITNYNPSLQGRVTISRDNSKNTLYLQMNSLRAEDTAVYYCARSLARTTAMDYWGEGTLVTVSSASTKGPSVFPLAPSSKSTSGGTAALGCLVKDYFPEPVTVSWNSGALTSGVHTFPAVLQSSGLYSLSSVVTVPSSSLGTQTYICNVNHKPSNTKVDKKVEPKSCDKTHTCPPCPAPDLLGDDSVFLFPPKPKDTLMISRTPEVTCVVVDVSEEDGEVKFNWYVDGVEVHNAKTKPREEQDNSTYRVVSVLTVLHQDWLNGKEYKCKVSNKALPAPIEKTISKAKGQPREPQVYTLPPSRDELTKNQVSLTCLVKGFYPSDIAVEWESNGQPENNYKTTPPVLDSDGSFFLYSKLTVDKSRWQQGNVFSCSVMHEALHNHYTQESLSLSP
light: not shown
notes: copies: 2 + 2
Kd [2]: 92 nM | Kd [3]: 4.5 nM

B9: IL6R-BP480/IL6R-L (antibody, human IgG1, kappa)
heavy: QVQLQESGPGLVKPSETLSLTCAVSGHSISHDHAWSWVRQPPGEGLEWIGFISYSGITNYNPSLQGRVTISRDNSKNTLYLQMNSLRAEDTAVYYCARSLARTTAMDYWGEGTLVTVSSASTKGPSVFPLAPSSKSTSGGTAALGCLVKDYFPEPVTVSWNSGALTSGVHTFPAVLQSSGLYSLSSVVTVPSSSLGTQTYICNVNHKPSNTKVDKKVEPKSCDKTHTCPPCPAPDLLGDDSVFLFPPKPKDTLMISRTPEVTCVVVDLSEDDGEVKFNWYVDGVEVHNAKTKPREEQYNSTYRVVSVLTVLHQDWLNGKEYKCKVSNKALPAPIEKTISKAKGQPREPQVYTLPPSRDELTKNQVSLTCLVKGFYPSDIAVEWESNGQPENNYKTTPPVLDSDGSFFLYSKLTVDKSRWQQGNVFSCSVMHEALHNHYTQESLSLSP
light: not shown
notes: copies: 2 + 2
Kd [1]: 6300 nM | Kd [2]: 200 nM
